Laboratory results: paper PMC11088876, “Activin E is a transforming growth factor β ligand that signals specifically through activin receptor-like kinase 7” (Biochemical Journal, 2024)

Molecular target: the molecule itself
Experiment: SDS-PAGE under non-reducing and reducing conditions with anti-Flag western blot; conditioned medium of transfected ExpiCHO-S cells; 15% SDS gels; covalent (disulfide-linked) dimer against monomer

B1: Flag-tagged mature ActE from Construct II (ligand, human, UniProt P58166 237-350, looked up)
chain: TPTCEPATPLCCRRDHYVDFQELGWRDWILQPEGYQLNYCSGQCPPHLAGSPGIAASFHSAVFSLLKANNPWPASTSCCVPTARRPLSLLYLDHNGNVVKTDVPDMVVEACGCS
notes: A233R lies in the furin site before the cut and is surmised not to stand in the mature chain; Furin processing was incomplete: the medium also holds singly and doubly unprocessed species and a smaller clipping product; also called Flag-ActE; ActE Construct II; source: ExpiCHO-S, transfected, conditioned medium (concentrated 20x); not shown: Flag, N-terminal, kept
Question: Which “stoichiometry N” value does the source give for B1 here?
Answer: 2
